We go through five molecules from PMC1084328 (Nucleic Acids Research, 2005).

Where two headings read alike, the source gives them in different places.

Series [1] concerns the target T1, RecN (Bacillus subtilis, UniProt P17894).
T1 sequence (P17894 1-576): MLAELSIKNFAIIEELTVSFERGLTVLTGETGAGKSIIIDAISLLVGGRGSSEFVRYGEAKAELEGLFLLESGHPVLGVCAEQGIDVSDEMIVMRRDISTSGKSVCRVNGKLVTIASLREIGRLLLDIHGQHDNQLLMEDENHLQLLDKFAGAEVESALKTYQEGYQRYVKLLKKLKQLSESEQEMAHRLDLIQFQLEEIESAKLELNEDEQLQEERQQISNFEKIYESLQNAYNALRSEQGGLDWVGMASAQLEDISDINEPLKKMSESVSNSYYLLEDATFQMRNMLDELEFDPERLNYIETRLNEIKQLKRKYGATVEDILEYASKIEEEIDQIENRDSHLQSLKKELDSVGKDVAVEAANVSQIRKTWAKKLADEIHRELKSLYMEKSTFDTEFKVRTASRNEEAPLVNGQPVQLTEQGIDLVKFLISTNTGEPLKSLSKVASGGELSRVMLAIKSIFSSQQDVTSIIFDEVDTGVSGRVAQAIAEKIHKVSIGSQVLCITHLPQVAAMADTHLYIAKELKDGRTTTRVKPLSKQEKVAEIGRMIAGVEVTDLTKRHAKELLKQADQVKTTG
The series is described as follows: EMSA, nucleotide-dependent RecN-ssDNA complex. It is filed as binding.

Series [2] has as its target T2, RecN (Bacillus subtilis, UniProt P17894 1-576).
T2 sequence: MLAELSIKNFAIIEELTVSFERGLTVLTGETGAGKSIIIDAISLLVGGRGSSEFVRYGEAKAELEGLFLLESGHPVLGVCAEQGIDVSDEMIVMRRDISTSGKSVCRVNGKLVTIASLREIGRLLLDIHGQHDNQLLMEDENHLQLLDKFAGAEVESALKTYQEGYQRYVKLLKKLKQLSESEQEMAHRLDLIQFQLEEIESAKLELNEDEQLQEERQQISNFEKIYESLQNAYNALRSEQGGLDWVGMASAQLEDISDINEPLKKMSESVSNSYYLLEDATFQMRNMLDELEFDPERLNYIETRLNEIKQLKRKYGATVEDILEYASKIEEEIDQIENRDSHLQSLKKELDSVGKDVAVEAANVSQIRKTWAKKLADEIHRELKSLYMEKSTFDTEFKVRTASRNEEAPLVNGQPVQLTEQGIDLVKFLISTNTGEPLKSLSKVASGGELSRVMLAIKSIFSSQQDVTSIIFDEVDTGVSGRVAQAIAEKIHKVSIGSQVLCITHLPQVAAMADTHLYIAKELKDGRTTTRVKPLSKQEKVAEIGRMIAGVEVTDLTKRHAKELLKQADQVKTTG
As to the kind of experiment: EMSA. For orientation: A gel shift assay detects complexes by their altered migration in electrophoresis.

Series [3] has as its target T3, RecN, high-S gradient fraction 1 (presumed octamer) (Bacillus subtilis, UniProt P17894 1-576).
T3 sequence: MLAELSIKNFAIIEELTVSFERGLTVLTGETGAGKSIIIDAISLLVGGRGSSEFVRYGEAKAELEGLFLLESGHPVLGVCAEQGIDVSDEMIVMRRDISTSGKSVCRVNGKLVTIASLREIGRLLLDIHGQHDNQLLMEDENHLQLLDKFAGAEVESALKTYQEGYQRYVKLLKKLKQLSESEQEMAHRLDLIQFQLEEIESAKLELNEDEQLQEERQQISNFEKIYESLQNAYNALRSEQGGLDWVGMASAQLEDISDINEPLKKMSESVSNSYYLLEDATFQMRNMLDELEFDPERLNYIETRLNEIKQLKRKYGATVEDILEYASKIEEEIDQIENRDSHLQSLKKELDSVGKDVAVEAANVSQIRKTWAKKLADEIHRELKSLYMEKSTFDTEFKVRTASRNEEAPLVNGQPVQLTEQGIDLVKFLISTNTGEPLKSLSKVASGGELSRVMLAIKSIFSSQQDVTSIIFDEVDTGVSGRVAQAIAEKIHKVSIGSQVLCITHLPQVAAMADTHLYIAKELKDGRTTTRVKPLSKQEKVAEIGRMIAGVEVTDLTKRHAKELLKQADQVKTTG
The series is described as follows: EMSA.

For series [4], the target named is T2, RecN. As to the kind of experiment: EMSA. The source holds these as a separate data set.
Series [5] concerns the target T2, RecN. The series is described as follows: EMSA. This is another data set of the same source.

As for `Nc1ncnc2c1ncn2[C@@H]1O[C@H](COP(=O)(O)OP(=O)(O)OP(O)(O)=S)[C@@H](O)[C@H]1O` [ATPγS], the “EMSA, nucleotide-dependent RecN-ssDNA complex (CII/CIII) assembly” value in series [1] (weakly hydrolysable analogue, ssDNA60, 2 mM MgCl2, pH 7.5, 37 °C) is “weakly hydrolysable analogue (ATPγS) present, CII and CIII formation was observed”.
Regarding `Nc1ncnc2c1ncn2[C@H]1C[C@H](O)[C@@H](COP(=O)(O)OP(=O)(O)OP(=O)(O)O)O1` [dATP], the “EMSA, nucleotide-dependent RecN-ssDNA complex (CII/CIII) assembly” value in series [1] (labelled ssDNA60 1 nM, RecN 10 nM, 2 mM MgCl2, pH 7.5, 2% PEG-6000, 37 °C, dATP 1 mM) was “also when ADP or dATP was present CIII and CII were formed”.
For the molecule CTCCTATTATGCTCA (ssDNA) [ssDNA15], the binding result in series [2] is “no binding”.

B1: ssDNA60 (ssDNA)
DNA: CTCCTATTATGCTCAACTTAAATGACCTACTCTATAAAGCTATAGTACTGCTATCTAATC
As to B1, the binding result in series [3] and in series [4] was “binds” throughout.

B2: dsDNA60 (dsDNA)
DNA 1: CTCCTATTATGCTCAACTTAAATGACCTACTCTATAAAGCTATAGTACTGCTATCTAATC
DNA 2: GATTAGATAGCAGTACTATAGCTTTATAGAGTAGGTCATTTAAGTTGAGCATAATAGGAG
Consider B2, for which the binding result in series [5] is on record as “no binding”.
